The results in this text go back to patent US11202837B2, “Biological materials and uses thereof” (Antikor Biopharma Limited, priority 2014, dated 2021).

As a reminder, the IC50 is the concentration at which inhibition is half-maximal.

Read-outs that look alike come from different tables or passages of the source.

The target of one data set is HER2 (Homo sapiens, UniProt P04626). Description: Biacore SPR binding to immobilised HER2. Particulars: immobilised HER2. The procedure:
The binding affinity against immobilised HER2 target antigen was determined by Biacore SPR compared to the unmodified scFv on a Biacore T200. A standard amine-coupling method was used to prepare all Biacore surfaces (CM5 or CM3), as follows. Flow cells were activated individually by injecting a freshly mixed solution of 0.2M EDC in 0.05 M NHS at 30 μl/min. […] Excess NHS ester was deactivated using a 1 M ethanolamine solution. To measure the kinetics of the antibody and conjugate on the HER2 chip, a […] serial dilution (typically at 5, 2.5, 1.25, 0.6 μg/ml or lower for free antibody and 20, 10, 5, 2.5 μg/ml for the conjugates), was injected for 160 s at 30 μl/min, allowing a 900-s dissociation phase. The dissociation time was extended to 3600 s for the highest concentration. Surfaces were regenerated with 45 s injection of MgCl2 8M.
To evaluate binding ability, manual runs were performed at 30 μl/min with a 60 s injection of the desired compound followed by 60 s waiting time and a 45 s of regeneration at 10 μl/min using MgCl2 8M. All data was analysed using the software, BIAEvaluation.
Background: SPR reads the build-up and loss of mass on a sensor chip optically.

Data set [1] can be described thus: Aggregation by HPLC size-exclusion chromatography. It counts as physicochemical. The settings on record: for aggregation by HPLC-SEC (in words): purified or analysed conjugate vs unconjugated antibody. The procedure:
Aggregation can be tested by analytical size-exclusion HPLC measuring the percentage of high molecular weight material compared to the conjugate eluting at a retention time characteristic of a monomeric conjugate.
Typically, 20 μg of protein was injected for analytical runs and 300 μg for semi-preparative runs.
Background: Size exclusion chromatography separates by hydrodynamic size, large species first.

In another data set the test system is SKBr3 cells. The data set can be described thus: Cell killing assay (MTS), SKBr3 cells. In kind it is cell-based, human. Particulars: SKBr3 Cells (HER2+++), 96 hours; for IC50: read-out: IC50.
Another data set has as its system BT474 cells. The data set can be described thus: Cell killing assay (MTS), BT474 cells. It counts as cell-based, human. The settings on record: BT474 Cells (HER2++), 96 hours, Table 49; for IC50: read-out: IC50. In outline: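 BT474 and NCI-N87 cells plated at 7500 cells/well in RPMI and exposed to ADCs for 96 h at 37 °C, 5% CO2. Viability read by MTS absorbance at 490 nm after 2 h, scaled between untreated (100% survival) and Triton X-100 (100% death) controls. Dose-response curves fitted from at least 3 repeats.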

A further data set has as its system NCI-N87 cells. The data set can be described thus: Cell killing assay (MTS), NCI-N87 cells. It counts as cell-based, human. The settings on record: 96 hours. The procedure:
(§1) The cells were recovered by centrifugation (2 min, 2000 rpm), the supernatant was discarded, and the cells were resuspended in complete McCoy's 5A (5 ml). The cells were then counted using a haemocytometer and diluted accordingly. They were plated at 5000 cells/well (200 μl) using attachment factor and incubated overnight at 37° C., 5% CO2 in a humidified atmosphere. U87 is a non-HER2 expressing glioblastoma cell line [Zitron I M et al (2013) BMC Cancer 13:83] and was grown in a similar way, plated at 1000 cells/well (using DMEM media). BT474 is a HER2 expressing breast cancer cell line [Brockhoff G et al (2007) Cell Prolif 40:488-507] and was grown in a similar way, plated at 7500 cells/well (using RPMI media). NCI-N87 is a HER2 expressing gastric cancer cell line [Yamashita-Kashima Y et al (2013) Oncol. Rep 30:1087-93] and was grown in a similar way, plated at 7500 cells/well (using RPMI media).
(§2) The cells were exposed to the various ADCs diluted in complete media for 96 hours at 37° C., 5% CO2 in a humidified atmosphere. Cell viability was measured using the Promega Aqueous Cell-titre-96™ aqueous one solution cell proliferation kit (MTS reagent) according to manufacturer's instructions. Briefly, the media was removed and 100 μl of complete phenol red free media, pre-combined with MTS reagent, was added to the cells (20 μl of reagent per 100 μl of media). The plates were read on an ELISA plate reader at 490 nm after a 2 hr incubation in the dark (5% CO2, 37° C.).
The data (absorption units) were converted to % cell survival by using the untreated controls as the 100% cell survival and the Triton X-100 controls as the 100% cell death. The average absorption value for the latter was subtracted from all the rest of the data in order to get a suitable baseline. The averages were converted to survival and standard error values were obtained for each n value (as a % cell survival). […] Experiments were repeated at least 3 times for each compound tested and a set or an average of the data was plotted and fitted to obtain a dose-response curve.

In the next data set the test system is U87 cells. The data set can be described thus: Cell killing assay (MTS), U87 cells. It counts as cell-based. Particulars: U87 Cells (HER2−), 96 hours, Table 51. The procedure:
SKBr3, human breast cancer cell line, high HER2 expression levels, up to 1,000,000 receptors per cell [Lazar G A, et al Proc Natl Acad Sci USA. […] When confluency was 70-80%, cells were washed with PBS (2×10 ml) and incubated with trypsin for 5-7 min. Complete media was added and the cells were resuspended by pipetting. The cells were recovered by centrifugation (2 min, 2000 rpm), the supernatant was discarded, and the cells were resuspended in complete DMEM (5 ml). The cells were then counted using a haemocytometer and diluted accordingly. They were plated at 4500 cells/well (200 μl) using attachment factor and incubated overnight at 37° C., 5% CO2 in a humidified atmosphere. U87 is a non-HER2 expressing glioblastoma cell line and was grown in a similar way, plated at 1000 cells/well.
The cells were exposed to the various ADCs diluted in complete media for 96 hours at 37° C., 5% CO2 in a humidified atmosphere. Cell viability was measured using the Promega Aqueous Cell-titre-96™ aqueous one solution cell proliferation kit according to manufacturer's instructions. Briefly, the media was removed and 100 μl of complete phenol red free media, pre-combined with MTS reagent, was added to the cells (20 μl of reagent per 100 μl of media). The plates were read on an ELISA plate reader at 490 nm after a 2 hr incubation in the dark (5% CO2, 37° C.).
The data (absorption units) were converted to % cell survival by using the untreated controls as the 100% cell survival and the Triton X-100 controls as the 100% cell death. The average absorption value for the latter was subtracted from all the rest of the data in order to get a suitable baseline. The averages were converted to survival and standard error values were obtained for each n value (as a % cell survival). […] Experiments were repeated at least 3 times for each compound tested and a set or an average of the data was plotted and fitted to obtain a dose response curve.
as §1, §2
The data (absorption units) were converted to % cell survival by using the untreated controls as the 100% cell survival and the Triton X-100 controls as the 100% cell death. The average absorption value for the latter was subtracted from all the rest of the data in order to get a suitable baseline. The averages were converted to survival and standard error values were obtained for each n value (as a % cell survival).

The mark [2] stands for this setting: NCI-N874 Cells (HER2++), Table 49.
Where [3] appears, read: NCI-N87 Cells (HER2++), Table 51.

B1: scFv (TCT1067)-P5-C5 DAR 10.9 (conjugate)
scFv: SGSGGSGQVQLVQSGAEVKKPGESLKISCKGSGYSFTSYWIAWVRQMPGKGLEYMGLIYPGDSDTKYSPSFQGQVTISVDKSVSTAYLQWSSLKPSDSAVYFCARHDVGYCTDRTCAAWPEWLGVWGQGTLVTVSSGGGGSGGGGSGGGGSQSVLTQPPSVSAAPGQKVTISCSGSSSNIGNNYVSWYQQLPGTAPKLLIYGHTNRPAGVPDRFSGSKSGTSASLAISGFRSEDEADYYCASWDYTLSGWVFGGGTKLTVLMASMTGGQQMG
Turning to B1, the dissociation rate with HER2 amounted to 7.13e-05 s⁻¹. Moreover, in data set [1], the “aggregation by HPLC-SEC (in words)” value is “no aggregation”.

B2: scFv (TCT1067)-Auristatin F-C5, DAR 6.2 (conjugate)
scFv: B1 scFv
Turning to B2, the “IC50 μg/ml” value amounted to 0.00101 µg/mL with SKBr3 cells (Table 49), 0.00112 µg/mL in the data set with BT474 cells and 0.00036 µg/mL in the data set with NCI-N87 cells (setting [2]). Also, the results for the half-inhibitory concentration (IC50) in the data set with SKBr3 cells (Table 49), in the data set on BT474 cells and in the data set on NCI-N87 cells (setting [2]) were 0.0361 nM, 0.0399 nM and 0.0129 nM, respectively.

B3: scFv (TCT1067)-Auristatin F-C5, DAR 11.8 (conjugate)
scFv: B1 scFv
In the case of B3, the entries for the “IC50 μg/ml” value in the data set with SKBr3 cells (Table 49), in the data set with BT474 cells and with NCI-N87 cells (setting [2]) were 0.00844 µg/mL, 0.01082 µg/mL and 0.0087 µg/mL, respectively. Besides, the results for the 50% inhibitory concentration (IC50) in the data set with SKBr3 cells (Table 49), in the data set on BT474 cells and in the data set with NCI-N87 cells (setting [2]) were 0.299 nM, 0.386 nM and 0.31 nM, respectively.

B4: scFv (TCT1067)-MMAE-PAB-Cit-Val-dPEG9, DAR 9 (conjugate)
scFv: B1 scFv
modifications: non-natural residues
For B4, the “IC50 μg/ml” value amounted to 0.04476 µg/mL with SKBr3 cells (Table 51), 0.1 µg/mL in the data set with U87 cells and 0.195 µg/mL in the data set on NCI-N87 cells (setting [3]). For the same molecule, the IC50 came out at 1.59 nM with SKBr3 cells (Table 51), 3.57 nM with U87 cells (read-out: IC50) and 6.95 nM in the data set on NCI-N87 cells (setting [3]).

B5: scFv (TCT1067)-DM1-dPEG12 DAR 8 (conjugate)
scFv: B1 scFv
Consider B5, for which, in the data set with HER2, the association rate stood at 13200 M⁻¹ s⁻¹ and the dissociation rate amounted to 3.28e-05 s⁻¹. Further, in data set [1], the “aggregation by HPLC-SEC” value amounted to 4% aggregates.

B6: scFv (TCT1067)-DM1-dPEG12 DAR 7 (conjugate)
scFv: B1 scFv
Regarding B6, in the data set with HER2, the association rate is 19500 M⁻¹ s⁻¹ and the dissociation rate is 2.7e-05 s⁻¹. The “aggregation by HPLC-SEC” value in data set [1] was found to be 1% aggregates.

B7: scFv (TCT1067)-Auristatin F-C5, DAR 2.7 (conjugate)
scFv: B1 scFv
For the molecule B7, the entries for the “IC50 μg/ml” value in the data set with SKBr3 cells (Table 49), in the data set with BT474 cells and in the data set on NCI-N87 cells (setting [2]) were 0.00089 µg/mL, 0.00115 µg/mL and 0.00087 µg/mL, respectively. Also, the IC50 came out at 0.0317 nM in the data set on SKBr3 cells (Table 49), 0.0392 nM with BT474 cells and 0.0311 nM in the data set on NCI-N87 cells (setting [2]).

B8: scFv (TCT)-Acetate DAR 15 (conjugate)
scFv: SGSGGSGQVQLVQSGAEVKKPGESLKISCKGSGYSFTSYWIAWVRQMPGKGLEYMGLIYPGDSDTKYSPSFQGQVTISVDKSVSTAYLQWSSLKPSDSAVYFCARHDVGYCSSSNCAAWPEYFQHWGQGTLVTVSSGGGGSGGGGSGGGGSQSVLTQPPSVSAAPGQKVTISCSGSSSNIGNNYVSWYQQLPGTAPKLLIYGHTNRPAGVPDRFSGSKSGTSASLAISGFRSEDEADYYCAAWDDSLSGWVFGGGTKLTVLMASMTGGQQMG
In the data set with HER2, B8 had an association rate of 5.93e+06 M⁻¹ s⁻¹ and a dissociation rate of 0.0171 s⁻¹. For the same molecule, the “aggregation by HPLC-SEC (in words)” value in data set [1] is “no aggregation”.

B9: scFv (TCT)-MMAF-C5 DAR 6.8 (conjugate)
scFv: B8 scFv
In the data set with HER2, B9 came in with an association rate of 1.2e+06 M⁻¹ s⁻¹ and a dissociation rate of 0.0042 s⁻¹. In data set [1], the “aggregation by HPLC-SEC” value was determined as 17% and the “aggregation by HPLC-SEC (in words)” value is “no aggregation”.

B10: scFv (TCT)-MMAF-C5 1 DAR 5.6 (conjugate)
scFv: B8 scFv
In the data set with HER2, B10 gave an association rate of 770000 M⁻¹ s⁻¹ and a dissociation rate of 0.0042 s⁻¹. Also, the “aggregation by HPLC-SEC (in words)” value in data set [1] is reported as “no aggregation”.
